Earlier results on one substance are cited in PMC12298957.

One may read the Kd as the free concentration of one partner at which half of the binding sites on the other are occupied at equilibrium, for simple one-to-one binding.

This series has as its target FGFR2 (Homo sapiens) (UniProt P21802).
Sequence of UniProt P21802 (P21802 22-377): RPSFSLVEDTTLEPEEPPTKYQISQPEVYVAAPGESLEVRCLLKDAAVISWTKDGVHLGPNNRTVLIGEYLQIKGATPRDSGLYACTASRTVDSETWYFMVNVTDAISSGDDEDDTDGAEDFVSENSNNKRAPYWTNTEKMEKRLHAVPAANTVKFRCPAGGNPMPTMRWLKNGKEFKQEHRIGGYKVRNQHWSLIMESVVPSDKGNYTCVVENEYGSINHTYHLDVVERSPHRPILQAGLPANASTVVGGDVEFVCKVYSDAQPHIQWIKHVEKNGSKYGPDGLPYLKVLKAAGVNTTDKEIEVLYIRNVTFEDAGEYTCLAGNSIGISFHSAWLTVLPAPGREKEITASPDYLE

Regarding WRARVPL peptide, the Kd was 1.4 µM.
